Where “and” joins values, the source holds several entries; their conditions need not be identical. Equal entries are not always repeated.
Columns and labels:
[1] = biological target: … (Plasmodium falciparum); experiment: BLI, target on sensor
[2] = biological target: NANPNVDP (Plasmodium falciparum); experiment: BLI, target on sensor
[3] = biological target: (NPNA)3 (Plasmodium falciparum); experiment: BLI, target on sensor
[4] = biological target: (NANP)6 (Plasmodium falciparum); experiment: BLI, target on sensor
[5] = biological target: (NVDP)3(NANP)2 (Plasmodium falciparum); experiment: BLI, target on sensor
[6] = biological target: … (Plasmodium falciparum); experiment: SPR, antibody on chip
[7] = biological target: (NPNA)3 (Plasmodium falciparum); experiment: SPR, antibody on chip
[8] = biological target: (NANP)6 (Plasmodium falciparum); experiment: SPR, antibody on chip
[9] = biological target: (NVDP)3(NANP)2 (Plasmodium falciparum); experiment: SPR, antibody on chip

B1: AB-000317 (antibody, V domains shown)
VH: QMQLVESGGGVVQPGRSLRLSCTASGFTFSTYAMHWVRQSPGQGLQWVAVISYHSTNKYYEDSVRGRFTISRDNSKNTLYLQMNSLRAEDTAVYYCARDGYSSSFFDFWGQGTLVTVSS
VL: DIQMTQSPSTLSASVGDRVAITCRASQSISRWLAWYQQQPGKAPKLLMSGASVLESGVPSRFSGSGSGTEFTLTISSLQPDDFATYYCQHYNSYFVTFGQGTKVEIK
Kd [1]: 2.76 nM and 2.51 nM
Kd [2]: 9.2 nM and 12.7 nM
Kd [3]: 0.18 nM and 0.8 nM
Kd [4]: 0.714 nM and 1.38 nM
Kd [5]: 4.27 nM and 3.73 nM
Kd [6]: 12900 nM and 15800 nM
Kd [7]: 4.91 nM and 11.2 nM
Kd [8]: 1.75 nM and 0.817 nM
Kd [9]: 2590 nM and 2910 nM

B2: AB-007055 (antibody, V domains shown)
VH: QMQLVESGGGVVQPGRSLRLSCTASGFTFSTYAMHWVRQSPGQGLQWVAVISYHSTNKYYEDSVRGRFTISRDNSKNTLYLQMNSLRAEDTAVYYCARDGYTSSFFDFWGQGTLVTVSS
VL: DIQMTQSPSTLSASVGDRVAITCRASQSISRWLAWYQQQPGKAPKLLMSGASVLESGVPSRFSGSGSGTEFTLTISSLQPDDFATYYCQHYNSYFVTFGQGTKVEIK
Kd [3]: 3.62 nM
Kd [4]: 1.61 nM
Kd [7]: 1470 nM
Kd [8]: 0.403 nM

B3: AB-007048 (antibody, V domains shown)
VH: QMQLVESGGGVVQPGRSLRLSCTASGFTFSTYSMHWVRQSPGQGLQWVAVISYHSTNKYYEDSVRGRFTISRDNSKNTLYLQMNSLRAEDTAVYYCARDGYSSSFFDFWGQGTLVTVSS
VL: DIQMTQSPSTLSASVGDRVAITCRASQSISRWLAWYQQQPGKAPKLLMSGASVLESGVPSRFSGSGSGTEFTLTISSLQPDDFATYYCQHYNSYFVTFGQGTKVEIK
Kd [1]: 28.6 nM
Kd [3]: 3.33 nM
Kd [4]: 1.46 nM
Kd [5]: 34.6 nM
Kd [7]: 1550 nM
Kd [8]: 1 nM

B4: AB-007068 (antibody, V domains shown)
VH: QMQLVESGGGVVQPGRSLRLSCTASGFTFSTYAMHWVRQSPGQGLQWVAVISYHSTNKYYEDSVRGRFTISRDNSKNTLYLQMNSLRAEDTAVYYCARDGYSSSFFDFWGQGTLVTVSS
VL: DIQMTQSPSTLSASVGDRVAITCRASQSISRWLAWYQQQPGKAPKLLMSLASVLESGVPSRFSGSGSGTEFTLTISSLQPDDFATYYCQHYNSYFVTFGQGTKVEIK
Kd [1]: 18.3 nM
Kd [2]: 21.8 nM
Kd [3]: 0.703 nM
Kd [4]: 1.59 nM
Kd [5]: 17.1 nM
Kd [7]: 111 nM
Kd [8]: 1.56 nM
Kd [9]: 32400 nM

B5: AB-007060 (antibody, V domains shown)
VH: QMQLVESGGGVVQPGRSLRLSCTASGFTFSTYAMHWVRQSPGQGLQWVAVISYHSTNKYYEDSVRGRFTISRDNSKNTLYLQMNSLRAEDTAVYYCARDGYSSSYFDFWGQGTLVTVSS
VL: DIQMTQSPSTLSASVGDRVAITCRASQSISRWLAWYQQQPGKAPKLLMSGASVLESGVPSRFSGSGSGTEFTLTISSLQPDDFATYYCQHYNSYFVTFGQGTKVEIK
Kd [1]: 43.2 nM
Kd [3]: 1.14 nM
Kd [4]: 0.898 nM
Kd [5]: 45.2 nM
Kd [7]: 212 nM
Kd [8]: 1.21 nM

B6: AB-007058 (antibody, V domains shown)
VH: QMQLVESGGGVVQPGRSLRLSCTASGFTFSTYAMHWVRQSPGQGLQWVAVISYHSTNKYYEDSVRGRFTISRDNSKNTLYLQMNSLRAEDTAVYYCARDGYSTSFFDFWGQGTLVTVSS
VL: DIQMTQSPSTLSASVGDRVAITCRASQSISRWLAWYQQQPGKAPKLLMSGASVLESGVPSRFSGSGSGTEFTLTISSLQPDDFATYYCQHYNSYFVTFGQGTKVEIK
Kd [1]: 46.3 nM
Kd [3]: 1.3 nM
Kd [4]: 1.14 nM
Kd [5]: 42.2 nM
Kd [7]: 339 nM
Kd [8]: 0.137 nM

B7: AB-007065 (antibody, V domains shown)
VH: QMQLVESGGGVVQPGRSLRLSCTASGFTFSTYAMHWVRQSPGQGLQWVAVISYHSTNKYYEDSVRGRFTISRDNSKNTLYLQMNSLRAEDTAVYYCARDGYSSSFFDFWGQGTLVTVSS
VL: DIQMTQSPSTLSASVGDRVAITCRASQSISRWLAWYQQQPGKAPKLLMSKASVLESGVPSRFSGSGSGTEFTLTISSLQPDDFATYYCQHYNSYFVTFGQGTKVEIK
Kd [1]: 9.73 nM
Kd [2]: 15.8 nM
Kd [3]: 2.23 nM
Kd [4]: 0.729 nM
Kd [5]: 9.71 nM
Kd [7]: 125 nM
Kd [8]: 0.238 nM
Kd [9]: 12600 nM

B8: AB-007053 (antibody, V domains shown)
VH: QMQLVESGGGVVQPGRSLRLSCTASGFTFSTYAMHWVRQSPGQGLQWVAVISYHSTQKYYEDSVRGRFTISRDNSKNTLYLQMNSLRAEDTAVYYCARDGYSSSFFDFWGQGTLVTVSS
VL: DIQMTQSPSTLSASVGDRVAITCRASQSISRWLAWYQQQPGKAPKLLMSGASVLESGVPSRFSGSGSGTEFTLTISSLQPDDFATYYCQHYNSYFVTFGQGTKVEIK
Kd [1]: 23.5 nM
Kd [2]: 24.7 nM
Kd [3]: 0.552 nM
Kd [4]: 1.37 nM
Kd [5]: 25.8 nM
Kd [7]: 112 nM
Kd [8]: 1.42 nM

B9: AB-007067 (antibody, V domains shown)
VH: QMQLVESGGGVVQPGRSLRLSCTASGFTFSTYAMHWVRQSPGQGLQWVAVISYHSTNKYYEDSVRGRFTISRDNSKNTLYLQMNSLRAEDTAVYYCARDGYSSSFFDFWGQGTLVTVSS
VL: DIQMTQSPSTLSASVGDRVAITCRASQSISRWLAWYQQQPGKAPKLLMSSASVLESGVPSRFSGSGSGTEFTLTISSLQPDDFATYYCQHYNSYFVTFGQGTKVEIK
Kd [1]: 36.1 nM
Kd [3]: 2.02 nM
Kd [4]: 0.647 nM
Kd [5]: 34 nM
Kd [7]: 207 nM
Kd [8]: 0.244 nM

B10: AB-007050 (antibody, V domains shown)
VH: QMQLVESGGGVVQPGRSLRLSCTASGFTFSTYAMHWVRQSPGQGLQWVAVISQHSTNKYYEDSVRGRFTISRDNSKNTLYLQMNSLRAEDTAVYYCARDGYSSSFFDFWGQGTLVTVSS
VL: DIQMTQSPSTLSASVGDRVAITCRASQSISRWLAWYQQQPGKAPKLLMSGASVLESGVPSRFSGSGSGTEFTLTISSLQPDDFATYYCQHYNSYFVTFGQGTKVEIK
Kd [1]: 37.4 nM
Kd [3]: 1.05 nM
Kd [4]: 0.856 nM
Kd [5]: 33.4 nM
Kd [7]: 271 nM
Kd [8]: 0.54 nM

B11: AB-007069 (antibody, V domains shown)
VH: QMQLVESGGGVVQPGRSLRLSCTASGFTFSTYAMHWVRQSPGQGLQWVAVISYHSTNKYYEDSVRGRFTISRDNSKNTLYLQMNSLRAEDTAVYYCARDGYSSSFFDFWGQGTLVTVSS
VL: DIQMTQSPSTLSASVGDRVAITCRASQSISRWLAWYQQQPGKAPKLLMSVASVLESGVPSRFSGSGSGTEFTLTISSLQPDDFATYYCQHYNSYFVTFGQGTKVEIK
Kd [1]: 27.5 nM
Kd [2]: 26.6 nM
Kd [3]: 1.43 nM
Kd [4]: 1.33 nM
Kd [5]: 28.7 nM
Kd [7]: 204 nM
Kd [8]: 1.85 nM

B12: AB-007056 (antibody, V domains shown)
VH: QMQLVESGGGVVQPGRSLRLSCTASGFTFSTYAMHWVRQSPGQGLQWVAVISYHSTNKYYEDSVRGRFTISRDNSKNTLYLQMNSLRAEDTAVYYCARDGYQSSFFDFWGQGTLVTVSS
VL: DIQMTQSPSTLSASVGDRVAITCRASQSISRWLAWYQQQPGKAPKLLMSGASVLESGVPSRFSGSGSGTEFTLTISSLQPDDFATYYCQHYNSYFVTFGQGTKVEIK
Kd [1]: 23.6 nM
Kd [2]: 29.6 nM
Kd [3]: 0.263 nM
Kd [4]: 0.88 nM
Kd [5]: 24.9 nM
Kd [7]: 62 nM
Kd [8]: 0.104 nM

B13: AB-007064 (antibody, V domains shown)
VH: QMQLVESGGGVVQPGRSLRLSCTASGFTFSTYAMHWVRQSPGQGLQWVAVISYHSTNKYYEDSVRGRFTISRDNSKNTLYLQMNSLRAEDTAVYYCARDGYSSSFFDFWGQGTLVTVSS
VL: DIQMTQSPSTLSASVGDRVAITCRASQSISRWLAWYQQQPGKAPKLLMTGASVLESGVPSRFSGSGSGTEFTLTISSLQPDDFATYYCQHYNSYFVTFGQGTKVEIK
Kd [1]: 30.9 nM
Kd [2]: 36.7 nM
Kd [3]: 0.453 nM
Kd [4]: 0.434 nM
Kd [5]: 33.7 nM
Kd [7]: 152 nM
Kd [8]: 0.192 nM

B14: AB-007059 (antibody, V domains shown)
VH: QMQLVESGGGVVQPGRSLRLSCTASGFTFSTYAMHWVRQSPGQGLQWVAVISYHSTNKYYEDSVRGRFTISRDNSKNTLYLQMNSLRAEDTAVYYCARDGYSSTFFDFWGQGTLVTVSS
VL: DIQMTQSPSTLSASVGDRVAITCRASQSISRWLAWYQQQPGKAPKLLMSGASVLESGVPSRFSGSGSGTEFTLTISSLQPDDFATYYCQHYNSYFVTFGQGTKVEIK
Kd [1]: 17.4 nM
Kd [2]: 25.8 nM
Kd [3]: 0.478 nM
Kd [4]: 1.41 nM
Kd [5]: 19.8 nM
Kd [7]: 174 nM
Kd [8]: 0.266 nM
Kd [9]: 17500 nM

B15: AB-007066 (antibody, V domains shown)
VH: QMQLVESGGGVVQPGRSLRLSCTASGFTFSTYAMHWVRQSPGQGLQWVAVISYHSTNKYYEDSVRGRFTISRDNSKNTLYLQMNSLRAEDTAVYYCARDGYSSSFFDFWGQGTLVTVSS
VL: DIQMTQSPSTLSASVGDRVAITCRASQSISRWLAWYQQQPGKAPKLLMSQASVLESGVPSRFSGSGSGTEFTLTISSLQPDDFATYYCQHYNSYFVTFGQGTKVEIK
Kd [1]: 26.6 nM
Kd [3]: 3.58 nM
Kd [4]: 0.315 nM
Kd [5]: 22.4 nM
Kd [7]: 357 nM
Kd [8]: 0.979 nM

B16: AB-007045 (antibody, V domains shown)
VH: QMQLVESGGGVVQPGRSLRLSCTASGFTFSTYAMHWVRQSPGQGLQWVAVISYHSTNKYYEDSVRGRFTISRDNSKNTLYLQMNSLRAEDTAVYYCARDAYSSSFFDFWGQGTLVTVSS
VL: DIQMTQSPSTLSASVGDRVAITCRASQSISRWLAWYQQQPGKAPKLLMSGASVLESGVPSRFSGSGSGTEFTLTISSLQPDDFATYYCQHYNSYFVTFGQGTKVEIK
Kd [1]: 43.6 nM
Kd [2]: 28.2 nM
Kd [3]: 0.734 nM
Kd [4]: 0.703 nM
Kd [5]: 43.9 nM
Kd [7]: 246 nM
Kd [8]: 2.35 nM

Reference: patent US20220195023A1
